In patent publication US20130237472A1:

Key:
[1] = target: TNF-α; assay: competition ELISA against plate-bound TNFRI190; relative affinity from IC50
[2] = target: TNF-α; assay: cell-based or functional assay

Result Affinity (%) relative to wild-type TNFRI126 [1] [%]	Relative activity (cell based assay) (Folds) [2] [fold]	Substance
100	–	Met-TNFRI126 (from UniProt P19438 41-166) (receptor)
–	1	Met-TNFRI171 (from UniProt P19438 41-211) (receptor)
